According to the supplement of paper PMC9732359:
± gives the uncertainty stated by the source.

Assay: protein stability index of a GFP-peptide fusion (yeast GPS) (PSI 1-4); higher = more stable; sorted into four equal gates, so the index is relative within each strain
Outline: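 The protein stability index combines read frequencies across sorting gates, each weighted by its gate number and then summed. To obtain those frequencies, a pooled yeast library of GFP fusions to tiled 17-residue yeast protein peptides, on a plasmid also expressing Cherry, was grown to mid-log phase in leucine-free medium. The cells were sorted into four equal gates by GFP/Cherry ratio before plasmid amplification by PCR and Illumina sequencing.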

Sequence	protein stability index (doa10∆)	protein stability index (pdr5∆)	protein stability index (san1∆)	protein stability index (ubr1∆)
NSAQNNSTTSGGLFGNK [YGR119C/NUP57]	3.25 ± 0.13	2.91 ± 0.13	3.2 ± 0.073	3.24 ± 0.17
VQIGAEIILDFLQDKVQ [CSI1]	3.03 ± 0.085	3.07 ± 0.066	2.88 ± 0.061	3.06 ± 0.047
ESSDFGAIILTKMDGHA [SRP54]	2.42 ± 0.1	2.74 ± 0.094	2.91 ± 0.11	2.8 ± 0.077
ETAKKITFHPKIRARSI [SMC2]	2.91 ± 0.058	2.95 ± 0.06	2.92 ± 0.045	2.85 ± 0.05
HELREKERISVAAASKI [PRE2]	2.67 ± 0.061	2.77 ± 0.049	2.79 ± 0.062	2.22 ± 0.03
TGPIEPKARQELPTQLA [RRP46]	2.82 ± 0.072	2.79 ± 0.074	3.21 ± 0.089	3.04 ± 0.056
KAYVRLTADYDALDIAN [RPL25]	2.94 ± 0.14	3.04 ± 0.15	3.17 ± 0.094	3.52 ± 0.091
ILKSPHLSKSPADRPQG [SIR4]	2.43 ± 0.074	2.51 ± 0.058	2.33 ± 0.056	2.37 ± 0.045
DLDLNEQVRKMYQEWED [NSL1]	2.97 ± 0.13	3.39 ± 0.11	3.26 ± 0.071	2.92 ± 0.11
HEFTLSFTYELKQHNQN [BRR2]	1.98 ± 0.074	1.97 ± 0.054	2.4 ± 0.08	2.43 ± 0.073
KKTCSSCGYPAAKTRSY [RPL37A]	2.25 ± 0.27	3.17 ± 0.11	2.69 ± 0.093	3.27 ± 0.11
SELLGGTFKSTLDREYI [QCR2]	3.15 ± 0.093	3.17 ± 0.11	2.87 ± 0.089	3.1 ± 0.05
SAAKYKDMKLLRYYKNI [NUT1]	1.83 ± 0.059	2.2 ± 0.06	2.23 ± 0.079	1.99 ± 0.04
VRAVSITSFGFGQKGGQ [FAS2]	2.92 ± 0.19	2.96 ± 0.23	1.74 ± 0.21	3.31 ± 0.27
PRGLRSLTTVWAEHLSD [RPL3]	2.74 ± 0.12	2.83 ± 0.17		2.72 ± 0.16
TSSTPSPIKNGSCTRQL [YOR098C/NUP1]	3.26 ± 0.064	3.02 ± 0.045	2.68 ± 0.046	3.09 ± 0.049
QLPANMVHLYSIVEECD [RPC17]	1.99 ± 0.044	1.98 ± 0.045	1.86 ± 0.065	2.02 ± 0.04
YAQRIGSGAPVYLTAVL [HTA1]	2.35 ± 0.058	2.48 ± 0.072	2.53 ± 0.097	2.35 ± 0.051
SAAATPSLNKTINGKVN [GAL11]	2.9 ± 0.06	3.14 ± 0.041	2.81 ± 0.042	3.01 ± 0.046
GVSLLIAGHDEFNGFSL [PRE8]	1.99 ± 0.18	2.18 ± 0.1	1.97 ± 0.1	2.07 ± 0.093
QDVQRTCILHGPVAAQF [FAS1]	2.12 ± 0.078	2.54 ± 0.057	2.02 ± 0.08	2.44 ± 0.044
HVSHEAMREVNDEKRVK [YIL149C/MLP2]	2.74 ± 0.097	2.89 ± 0.15		3.03 ± 0.12
ILQYSRTWYESFCGFLL [YJR042W/NUP85]	2.11 ± 0.061	1.72 ± 0.049	1.39 ± 0.14	1.42 ± 0.067
RTPYLTSLKKIKDEIDD [SWI1]	2.86 ± 0.16	2.66 ± 0.091	2.21 ± 0.12	2.62 ± 0.079
LGSDSSDGHNSEKKDTD [SRB4]	1.68 ± 0.11	2.02 ± 0.2	1.59 ± 0.27	
SEKGLLSATQFTQPALT [FAS1]	2.44 ± 0.061	2.65 ± 0.047	2.73 ± 0.039	2.57 ± 0.038
NPNNVNVQTQYREAPVI [RET1]	2.5 ± 0.085	2.73 ± 0.045	2.48 ± 0.1	2.63 ± 0.057

Sequence	protein stability index (doa10∆)	protein stability index (pdr5∆)	protein stability index (san1∆)	protein stability index (ubr1∆)
PFNFTVTLFQMAILLLY [CDC53]	1.65 ± 0.045	1.59 ± 0.045	1.41 ± 0.11	1.63 ± 0.039
ANNASQITPTVPHSHPS [SNF12]	2.77 ± 0.053	3 ± 0.064	2.82 ± 0.052	2.9 ± 0.052
SCRNPEHTDVIDELIDT [YIL149C/MLP2]	2.68 ± 0.054	2.76 ± 0.061	2.58 ± 0.047	2.58 ± 0.035
WKSPEWIQVFGLRTENV [MED6]	2.14 ± 0.084	2.22 ± 0.058	2 ± 0.13	2.35 ± 0.072
ESIASSNTYKEERSNNL [MCD1]	3.03 ± 0.13	3.37 ± 0.14	3.25 ± 0.06	3.39 ± 0.075
DQKFGVPVRSFKGHSHI [ASC1]	3.11 ± 0.092	3.19 ± 0.064	2.99 ± 0.07	3.25 ± 0.058
HFGHCFNITDNGVRALF [GRR1]	2.07 ± 0.18	2.65 ± 0.13		2.64 ± 0.1
LEYWCNPPYSQCIVYPN [SOH1]	2.03 ± 0.048	2.27 ± 0.045	2.05 ± 0.054	2.13 ± 0.037
FWSLHSSTYYNLDYLFE [NUT1]	2.44 ± 0.053	2.05 ± 0.037	2 ± 0.063	1.95 ± 0.029
LRDIGECENEIKTKQMS [SMC2]	3.05 ± 0.29	3.29 ± 0.092	3.2 ± 0.097	3.41 ± 0.12
ATLNYIDKNHGFERLTV [SRB7]		3.28 ± 0.15		3.49 ± 0.13
PKEEEPILAPSVKDYRP [RPS3]	2.8 ± 0.059	2.86 ± 0.079	3.04 ± 0.052	2.65 ± 0.054
VEFCGYSIPHPSENLLN [RPC19]	2.7 ± 0.077	3.05 ± 0.062	2.92 ± 0.05	2.95 ± 0.074
LSIPGKSTPEGTLWAHV [SNU114]	2.91 ± 0.065	3.09 ± 0.064	2.9 ± 0.059	3.03 ± 0.04
EILGTAQSVGCRVDFKN [RPL12A]	2.12 ± 0.06	2.25 ± 0.06	2.46 ± 0.11	2.94 ± 0.055
NEYVIKTPVFTTGGDYI [YMR129W/POM152]	1.88 ± 0.062	2.07 ± 0.053	1.91 ± 0.075	1.99 ± 0.053
VTRFTTWNGSPFDNSTE [YJL039C/NUP192]	2.44 ± 0.079	2.17 ± 0.052	2.3 ± 0.099	2.41 ± 0.067
QELGFCELLKLTNEDPP [SSN2]	3 ± 0.12	3.12 ± 0.069	2.83 ± 0.1	3.02 ± 0.066
DFIQLKQTAAYRTPGSS [SSN2]	2.88 ± 0.064	2.98 ± 0.071	2.79 ± 0.083	2.92 ± 0.044
QPQALQKSGRPVKSIRA [RPO21]	2.62 ± 0.065	2.29 ± 0.069	2.36 ± 0.083	2.17 ± 0.037
SFQLSKIRRAARDLLTR [RPS9A]	2.06 ± 0.044	2.24 ± 0.044	2.21 ± 0.045	1.98 ± 0.032
HSDRYHRVAENWRKQKG [RPL32]		2.99 ± 0.2		2.6 ± 0.23
RSRISSPHGLINLNVDD [SRB4]	2.47 ± 0.052	2.48 ± 0.061	2.61 ± 0.075	2.15 ± 0.043
NGGNSVITLAEYEKRNH [SRP68]	3.57 ± 0.12	3.28 ± 0.14	3.44 ± 0.1	3.38 ± 0.12
PLLEAKKLVWPLHLIFA [SSN2]	1.61 ± 0.083	1.29 ± 0.059	1.24 ± 0.11	1.19 ± 0.06
GARVFGALKGASDGGLY [RPL5]		3.34 ± 0.17		3.11 ± 0.19
